These results are taken from US20100169988A1 (published 2010).

Assay [1] addresses T1, APP-TAP-AICD (human, UniProt P05067 18-695). Nature of the assay: streptavidin purification of APP-TAP-AICD from brain homogenate; iTRAQ 116/114, transgenic mouse 75 vs control mouse 72; MALDI-TOF/TOF.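 Further: relative protein abundance in the transgenic versus control pull-down, limited to proteins with high quality scores and above-average enrichment, without full normalization across the whole measurement.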
Excerpt: (§1) Shown are all proteins that have high quality scores and are enriched above average in the m75 sample. Purified bait protein is given underlined. Other already known interaction partners of AICD or putatively biologically relevant proteins are given in bold. As full normalization over the entire measurement was not possible through the GPS explorer software suite, this conservative estimate had to be taken for determining the enriched vs. the non-enriched proteins. […] Ranking is in order of abundance ratio.
Assay [2] addresses T1, APP-TAP-AICD. Nature of the assay: streptavidin purification of APP-TAP-AICD from brain homogenate; LTQ-FT semiquantitative method, transgenic mouse 75 vs control mouse 72.
In assay [3] the target is T2, APP-TAP-AICD (human, UniProt P05067-4 18-695).
T2 construct: Bait purified from brain homogenate of hemizygous transgenic mice via streptavidin; full-length APP and cleaved C-terminal stubs are isolated; also called TAP-tagged full-length human APP
Nature of the assay: streptavidin purification of APP-TAP-AICD from brain homogenate; iTRAQ 116/114, transgenic mouse 75 vs control mouse 72; MALDI-TOF/TOF.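 Further: relative protein abundance in the transgenic versus control pull-down, limited to proteins with high quality scores and above-average enrichment, without full normalization across the whole measurement.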
Excerpt: as §1

B1: 14-3-3 protein epsilon (14-3-3E) (other, mouse, UniProt P62259 1-255, looked up)
chain: MDDREDLVYQAKLAEQAERYDEMVESMKKVAGMDVELTVEERNLLSVAYKNVIGARRASWRIISSIEQKEENKGGEDKLKMIREYRQMVETELKLICCDILDVLDKHLIPAANTGESKVFYYKMKGDYHRYLAEFATGNDRKEAAENSLVAYKAASDIAMTELPPTHPIRLGLALNFSVFYYEILNSPDRACRLAKAAFDDAIAELDTLSEESYKDSTLIMQLLRDNLTLWTSDMQGDGEEQNKEALQDVEDENQ
Regarding B1, in the assay with APP-TAP-AICD [1], the iTRAQ ratio amounted to 3.94. Further, the “probability that this protein is enriched” value with APP-TAP-AICD [2] was 1.

B2: Vesicle-fusing ATPase (EC 3.6.4.6) (Vesicular-fusion protein NSF) (N-ethylmaleimide sensitive fusion protein) (enzyme, mouse, UniProt P46460 1-744, looked up)
chain: MAGRTMQAARCPTDELSLSNCAVVNEKDFQSGQHVMVRTSPNHKYIFTLRTHPSVVPGCIAFSLPQRKWAGLSIGQDIEVALYSFDKAKQCIGTMTIEIDFLQKKNIDSNPYDTDKMAAEFIQQFNNQAFSVGQQLVFSFNDKLFGLLVKDIEAMDPSILKGEPASGKRQKIEVGLVVGNSQVAFEKAENSSLNLIGKAKTKENRQSIINPDWNFEKMGIGGLDKEFSDIFRRAFASRVFPPEIVEQMGCKHVKGILLYGPPGCGKTLLARQIGKMLNAREPKVVNGPEILNKYVGESEANIRKLFADAEEEQRRLGANSGLHIIIFDEIDAICKQRGSMAGSTGVHDTVVNQLLSKIDGVEQLNNILVIGMTNRPDLIDEALLRPGRLEVKMEIGLPDEKGRLQILHIHTARMRGHQLLSADVDIKELAVETKNFSGAELEGLVRAAQSTAMNRHIKASTKVEVDMEKAESLQVTRGDFLASLENDIKPAFGTNQEDYASYIMNGIIKWGDPVTRVLDDGELLVQQTKNSDRTPLVSVLLEGPPHSGKTALAAKIAEESNFPFIKICSPDKMIGFSETAKCQAMKKIFDDAYKSQLSCVVVDDIERLLDYVPIGPRFSNLVLQALLVLLKKAPPQGRKLLIIGTTSRKDVLQEMEMLNAFSTTIHVPNIATGEQLLEALELLGNFKDKERTTIAQQVKGKKVWIGIKKLLMLIEMSLQMDPEYRVRKFLALMREEGASPLDFD
As to B2, in the assay with APP-TAP-AICD [1], the iTRAQ ratio was found to be 4. In addition, the “probability that this protein is enriched” value with APP-TAP-AICD [2] came out at 0.86.

B3: Guanine nucleotide-binding protein G(o); alpha subunit 1 (other, mouse, UniProt P18872 2-354, looked up)
chain: GCTLSAEERAALERSKAIEKNLKEDGISAAKDVKLLLLGAGESGKSTIVKQMKIIHEDGFSGEDVKQYKPVVYSNTIQSLAAIVRAMDTLGVEYGDKERKTDSKMVCDVVSRMEDTEPFSAELLSAMMRLWGDSGIQECFNRSREYQLNDSAKYYLDSLDRIGAGDYQPTEQDILRTRVKTTGIVETHFTFKNLHFRLFDVGGQRSERKKWIHCFEDVTAIIFCVALSGYDQVLHEDETTNRMHESLMLFDSICNNKFFIDTSIILFLNKKDLFGEKIKKSPLTICFPEYPGSNTYEDAAAYIQTQFESKNRSPNKEIYCHMTCATDTNNIQVVFDAVTDIIIANNLRGCGLY
notes: also called GNAO1_MOUSE
Consider B3, for which the iTRAQ ratio in the assay with APP-TAP-AICD [3] turned out to be 3.38.

B4: SH3-containing GRB2-like protein 1 (SH3 domain protein 2B) (SH3p8) (other, mouse, UniProt Q62419 1-368, looked up)
chain: MSVAGLKKQFYKASQLVSEKVGGAEGTKLDDDFKDMEKKVDVTSKAVAEVLVRTIEYLQPNPASRAKLTMLNTVSKIRGQVKNPGYPQSEGLLGECMVRHGKELGGESNFGDALLDAGESMKRLAEVKDSLDIEVKQNFIDPLQNLCDKDLKEIQHHLKKLEGRRLDFDYKKKRQGKIPDEELRQALEKFEESKEVAETSMHNLLETDIEQVSQLSALVDAQLDYHRQAVQILEELADKLKRRVREASSRPKREFKPRPREPFELGELEQPNGGFPCAPAPKITASSSFRSSDKPIRMPSKSMPPLDQPSCKALYDFEPENDGELGFREGDLITLTNQIDENWYEGMLHGQSGFFPLSYVQVLVPLPQ
notes: also called SH3G1_MOUSE
For the molecule B4, the iTRAQ ratio in the assay with APP-TAP-AICD [1] came out at 3.64. Also, the “probability that this protein is enriched” value with APP-TAP-AICD [2] is 1.
